Test results: article PMC4793217

T1: ME31B, endogenous (D. melanogaster (endogenous in embryos)) (UniProt P23128)
T1 sequence: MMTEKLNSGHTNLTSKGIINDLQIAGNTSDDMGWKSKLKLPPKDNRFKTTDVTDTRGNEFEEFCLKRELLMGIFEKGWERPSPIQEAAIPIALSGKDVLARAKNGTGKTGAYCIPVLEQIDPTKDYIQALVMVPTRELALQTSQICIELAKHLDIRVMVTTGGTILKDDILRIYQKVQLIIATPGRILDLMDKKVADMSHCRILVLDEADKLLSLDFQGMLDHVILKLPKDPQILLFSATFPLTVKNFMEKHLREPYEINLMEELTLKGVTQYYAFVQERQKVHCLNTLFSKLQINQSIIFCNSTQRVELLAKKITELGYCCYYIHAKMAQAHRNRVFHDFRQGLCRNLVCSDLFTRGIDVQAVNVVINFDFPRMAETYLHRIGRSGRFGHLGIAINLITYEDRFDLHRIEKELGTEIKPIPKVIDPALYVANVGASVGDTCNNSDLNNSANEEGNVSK


What was measured:
[1] = molecular target: T1, ME31B, endogenous (D. melanogaster (endogenous in embryos)); assay: co-IP
[2] = molecular target: IMP, endogenous (D. melanogaster (endogenous in embryos)); assay: co-IP

| percent of IP input precipitated [1] | percent of IP input precipitated [2] | Binder |
| --- | --- | --- |
| < 1% |  | anti-ME31B (P012) synthetic Fab (Fab, V domains shown) VH: EVQLVESGGGLVQPGGSLRLSCAASGFNLSYSSIHWVRQAPGKGLEWVASIYSYYGYTYYADSVKGRFTISADTSKNTAYLQMNSLRAEDTAVYYCARWYWYGWALDYWGQGTLVTVSS VL: DIQMTQSPSSLSASVGDRVTITCRASQSVSSAVAWYQQKPGKAPKLLIYSASSLYSGVPSRFSGSRSGTDFTLTISSLQPEDFATYYCQQGPYPYYGLITFGQGTKVEIK |
|  | 1 to 10% | anti-IMP (P054) synthetic Fab (Fab, V domains shown) VH: EVQLVESGGGLVQPGGSLRLSCAASGFNLSYSYIHWVRQAPGKGLEWVASIYSYYSYTYYADSVKGRFTISADTSKNTAYLQMNSLRAEDTAVYYCARWWVVYGMDYWGQGTLVTVSS VL: DIQMTQSPSSLSASVGDRVTITCRASQSVSSAVAWYQQKPGKAPKLLIYSASSLYSGVPSRFSGSRSGTDFTLTISSLQPEDFATYYCQQHWWLITFGQGTKVEIK |
